Measurements as given in paper PMC12670400, “LEKTI-Grafted Sunflower Trypsin Inhibitor: A Potential Therapeutic for Skin Diseases” (Journal of Medicinal Chemistry, 2025).
Bridge positions count the residues as written; N and C are the ends. Ends that are not written are not given here.

Legend:
[1] = tested on: KLK5-mediated PAR2 activation; test: PAR2-dependent intracellular calcium mobilization assay in N/TERT keratinocytes; format: cell-based; conditions: peptide 400 μM
Excerpt: PAR2, a member of the G-protein-coupled receptor family expressed in keratinocytes, is a known downstream target of KLK5. KLK5 activates PAR2 by cleaving its extracellular N-terminal domain. This cleavage exposes a tethered ligand, which binds PAR2 intramolecularly to activate the receptor. , Activated PAR2 causes protein kinase C (PKC) and inositol 1,4,5-trisphosphate (IP3) activation, leading to calcium release from the endoplasmic reticulum, known as intracellular calcium mobilization. […] This delay is attributed to the time required for KLK5 to enzymatically cleave the extracellular N-terminal domain of PAR2, thereby exposing the tethered ligand sequence necessary to initiate receptor activation and downstream calcium signaling. […] This observation confirmed PAR2-dependent calcium mobilization and that rKLK5 could initiate PAR2 activation. The inhibition potential of lead 7 on KLK5 activity was then assessed by using this assay. rKLK5 was preincubated with lead 7 at concentrations of 2.5, 5, 20, or 40 μM for one hour before being applied to cultured keratinocytes, after which PAR2-dependent calcium mobilization was measured.
For Ki calculation, Km values for KLK5 and its substrate Boc-VPR-AMC were previously reported in the literature 8, 9, allowing the conversion from IC50 to Ki using the Cheng Prusoff equation10 Kᵢ = IC₅₀ / (1 + [S]/Kₘ) for single-site competitive binding.
Cell lines and tissue cultures
Keratinocytes isolated from the skin in a patient with genetic skin disease Netherton Syndrome (NS19) and in healthy donors (C42, C46, P8) were used in the study. […]
The immortalized keratinocyte cell line (N/TERT)13, 14 were used for the assay. […] The cells were counted, and 100 µL of the suspension, at a density of 600,000 cells/mL, was seeded into each well of a 96 -well microplate. […]
calcium signalling. […] Fluorescence excitation was set at 485 nm, and emission was recorded at 520 nm using SpectraMax® i3x plate reader. […]

KLK7 [2] = target: T1, KLK7 (Homo sapiens, UniProt P49862); parameters: purchased R&D Systems 2624-SE; conditions: read-out: Ki against KLK7; cited from earlier work
Target sequence in this assay (P49862 30-253): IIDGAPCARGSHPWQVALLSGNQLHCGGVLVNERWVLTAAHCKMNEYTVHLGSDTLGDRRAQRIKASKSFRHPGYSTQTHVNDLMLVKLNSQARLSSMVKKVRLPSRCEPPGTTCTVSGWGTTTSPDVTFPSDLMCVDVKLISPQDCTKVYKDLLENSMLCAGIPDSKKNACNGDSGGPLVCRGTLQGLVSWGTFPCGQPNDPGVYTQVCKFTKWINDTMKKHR

KLK5 = target: T2, KLK5 (Homo sapiens, UniProt Q9Y337); conditions: prior findings, reference not given; read-out: Ki against KLK5; cited from earlier work
T2 construct: purchased R&D Systems 1108-SE
T2 sequence (Q9Y337 23-293): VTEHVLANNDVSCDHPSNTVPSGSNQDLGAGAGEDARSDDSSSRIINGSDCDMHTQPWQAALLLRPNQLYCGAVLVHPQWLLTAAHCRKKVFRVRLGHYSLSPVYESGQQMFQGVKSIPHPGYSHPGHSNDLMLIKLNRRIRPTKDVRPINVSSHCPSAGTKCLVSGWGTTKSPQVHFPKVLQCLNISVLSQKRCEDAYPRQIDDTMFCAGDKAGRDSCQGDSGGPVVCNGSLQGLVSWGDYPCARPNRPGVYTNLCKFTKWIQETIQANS

KLK7 [3] = target: T1, KLK7; test: enzyme inhibition assay (fluorogenic substrate); selectivity: inhibition of KLK7, KLK8 or KLK14 activity by the peptide, n = 3; substrates and conditions in the Supporting Information
[4] = target: T3, Kallikrein-related peptidase 5 (KLK5) (UniProt Q9Y337 23-293); test: enzyme inhibition assay (fluorogenic substrate); inhibition of KLK5 activity by the peptide, fluorogenic substrate Boc-VPR-AMC, n = 3; conditions in the Supporting Information; conditions: both partners purified
[5] = target: T3, Kallikrein-related peptidase 5 (KLK5); test: as above; conditions: both partners purified; remark: listed apart in the source
KLK8 = target: T4, KLK8 (UniProt O60259 33-260); test: enzyme inhibition assay (fluorogenic substrate); selectivity: inhibition of KLK7, KLK8 or KLK14 activity by the peptide, n = 3; substrates and conditions in the Supporting Information; conditions: both partners purified
T4 construct: Kallikrein 8 (KLK8); construct and source are in the Supporting Information
T4 sequence (looked up): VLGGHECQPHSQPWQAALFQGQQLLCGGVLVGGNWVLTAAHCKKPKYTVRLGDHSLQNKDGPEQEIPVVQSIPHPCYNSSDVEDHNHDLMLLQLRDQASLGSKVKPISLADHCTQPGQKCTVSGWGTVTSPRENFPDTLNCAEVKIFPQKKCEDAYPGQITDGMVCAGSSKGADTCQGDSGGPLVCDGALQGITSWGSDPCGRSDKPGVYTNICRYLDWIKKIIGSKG

KLK14 = target: T5, KLK14 (UniProt Q9P0G3); test: as above
T5 sequence (Q9P0G3 41-267, species assumed, looked up): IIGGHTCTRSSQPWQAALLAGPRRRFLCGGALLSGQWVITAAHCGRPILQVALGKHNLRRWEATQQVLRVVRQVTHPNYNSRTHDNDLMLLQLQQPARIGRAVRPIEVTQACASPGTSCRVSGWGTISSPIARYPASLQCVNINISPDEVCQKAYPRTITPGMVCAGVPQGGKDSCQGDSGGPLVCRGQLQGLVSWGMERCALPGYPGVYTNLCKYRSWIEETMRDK

LRGILS-NH2 [R-AP, reference compound]
calcium mobilization on stimulation of keratinocytes [1]: did not induce calcium mobilization

SLIGRL-NH2 [AP, reference compound]
calcium mobilization on stimulation of keratinocytes [1]: PAR2-dependent calcium mobilization was observed

α1-antichymotrypsin [reference compound]
Ki (KLK7 [2]): 500 nM

B1: LEKTI Domain 6: domain 6 of the endogenous serine protease inhibitor LEKTI (protein)
chain: ESGKATSYAELCNEYRKLVRNGKLACTRENDPIQGPDGKVHGNTCSMCEVFFQAEEEEKKKKEGESRN
modifications: Kazal-type disulfides
Ki (KLK5): 83.3 nM

B2: SFTI analogue 8 (peptide)
peptide: cyclo(GFCHRSYPPECWPN)
modifications: disulfide 3-11 (inferred)
notes: SFTI scaffold grafted with residues of a LEKTI or LEKTI-like domain, glutamic acid at position 10; also called compound 8; source: synthetic peptide (hydrazide peptide, cyclised via native chemical ligation, oxidised, RP-HPLC purified)
IC50 (KLK7 [3]): > 1000 nM | Ki [4]: 8 nM | IC50 [5]: 8.6 ± 2 nM | IC50 (KLK8): > 1000 nM

B3: LEKTI Domain 5: domain 5 of the endogenous serine protease inhibitor LEKTI (protein)
chain: REIVKLCSQYQNQAKNGILFCTRENDPIRGPDGKMHGNLCSMCQAYFQAENEEKKKAEARAR
modifications: Kazal-type disulfides
Ki (KLK5): 32.8 nM

B4: LEKTI-grafted SFTI analogue, lead 7 (peptide)
peptide: cyclo(GFCTRSNPPECWPN)
modifications: disulfide 3-11 (inferred)
notes: SFTI scaffold grafted with residues of a LEKTI domain, glutamic acid at position 10; source: synthetic peptide (hydrazide peptide, cyclised via native chemical ligation, oxidised, RP-HPLC purified)
IC50 (KLK14): > 1000 nM | IC50 (KLK7 [3]): > 1000 nM | Ki [4]: 11 nM | IC50 [5]: 14 ± 4 nM | IC50 (KLK8): > 1000 nM
